In paper PMC7946651, “The Recombinant Luciferase of the Fungus Neonothopanus nambi: Obtaining and Properties” (Doklady. Biochemistry and Biophysics, 2021) one finds Km data, which are given here for one protein.

Substrate in this series: O=c1oc(/C=C/c2ccc(O)c(O)c2)cc(O)c1O
The series is described as follows: bioluminescence, initial light intensity, Michaelis-Menten fit. The following applies: 50 nM enzyme, 200 mM Na-phosphate pH 8.0, 500 mM Na2SO4, 0.1% DDM, room temperature, luciferin 2 nM to 50 μM. Type of series: biochemical, Neonothopanus nambi.

B1: recombinant N. nambi luciferase (nnLuz) (Neonothopanus nambi) (protein)
chain: MRINISLSSLFERLSKLSSRSIAITCGVVLASAIAFPIIRRDYQTFLEVGPSYAPQNFRGYIIVCVLSLFRQEQKGLAIYDRLPEKRRWLADLPFREGTRPSITSHIIQRQRTQLVDQEFATRELIDKVIPRVQARHTDKTFLSTSKFEFHAKAIFLLPSIPINDPLNIPSHDTVRRTKREIAHMHDYHDCTLHLALAAQDGKEVLKKGWGQRHPLAGPGVPGPPTEWTFLYAPRNEEEARVVEMIVEASIGYMTNDPAGKIVENAK
notes: expressed in Pichia pastoris GS115; membrane protein solubilized and purified in DDM
As for B1, the Km amounted to 1.09 ± 0.06 µM.

One may read the Km as the substrate concentration at which the rate is half of its maximum.
